Experimental data published in article PMC9585320 (Frontiers in Molecular Biosciences, 2022).

T1: MazF9 toxin, (His)6MazF(FLAG)3 (Mycobacterium tuberculosis, UniProt P71650 1-118)
T1 chain: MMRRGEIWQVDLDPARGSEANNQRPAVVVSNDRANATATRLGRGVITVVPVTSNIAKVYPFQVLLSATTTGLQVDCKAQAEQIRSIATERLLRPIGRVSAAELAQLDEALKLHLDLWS

B1: MazE6 antitoxin, full length, purified (natural protein)
chain: MKTAISLPDETFDRVSRRASELGMSRSEFFTKAAQRYLHELDAQLLTGQIDRALESIHGTDEAEALAVANAYRVLETMDDEW

Legend:
[1] = biological target: T1, MazF9 toxin, (His)6MazF(FLAG)3; assay: MST
[2] = biological target: MazF6 library; assay: flow cytometry on cells

Binder	Kd [1] [nM]	Kd [2] [nM]
LEDDYANAWQEWSAAGDTDAWEQTVGDGVGDAPR [C-terminal MazE9 peptide (residues 43-76)]	5.2	–
B1	–	0.13
RLAERDAEILATNTSATGDLDTLAGHCARTALDID [C-terminal MazE3 peptide (residues 72-106)]	173	–
